Usually Kd stands for the concentration at which binding is half-saturated.

The assay has as its target recombinant human SDF1 (free SDF1) (human, UniProt P48061-2 22-89). The assay is described as follows: SPR.

Sequence of recombinant human SDF1 (free SDF1) (P48061 22-89): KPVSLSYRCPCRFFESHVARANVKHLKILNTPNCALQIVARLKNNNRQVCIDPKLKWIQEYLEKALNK

B1: recombinant human CXCR4 (receptor, UniProt P61073 1-352, looked up)
chain: MEGISIYTSDNYTEEMGSGDYDSMKEPCFREENANFNKIFLPTIYSIIFLTGIVGNGLVILVMGYQKKLRSMTDKYRLHLSVADLLFVITLPFWAVDAVANWYFGNFLCKAVHVIYTVNLYSSVLILAFISLDRYLAIVHATNSQRPRKLLAEKVVYVGVWIPALLLTIPDFIFANVSEADDRYICDRFYPNDLWVVVFQFQHIMVGLILPGIVILSCYCIIISKLSHSKGHQKRKALKTTVILILAFFACWLPYYIGISIDSFILLEIIKQGCEFENTVHKWISITEALAFFHCCLNPILYAFLGAKFKTSAQHALTSVSRGSSLKILSKGKRGGHSSVSTESESSSFHSS
With B1, the Kd amounted to 300 pM.

The record behind these values is article PMC4894760 (Journal of controlled release : official journal of the …, 2016).
